Source: the supplement of paper PMC9112550, “Optimization of the antimicrobial peptide Bac7 by deep mutational scanning” (BMC Biology, 2022)

These sequences were tested on Escherichia coli TOP10 (assay: shrunken log2 fold change of peptide-encoding DNA abundance (4.5 h post-induction vs induction); higher = less antimicrobial activity (less host growth inhibition)). Conditions: time post-induction: 4.5 h; library: site-saturation at positions 5, 18, 19, 20.
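Also: peptides expressed intracellularly from a pBAD plasmid library in pooled LB shake-flask culture, induced with 0.3% L-arabinose, DNA abundance read by NGS, three biological replicates, DESeq2 with apeglm shrinkage.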

Question: For RRIRDRPPRLPRPRPRPHMGPRP, which “shrunken log2 fold change” value is on record?
Answer: -0.174

Question: With RRIRDRPPRLPRPRPRPHNDPRP as the sequence, how does the “shrunken log2 fold change” value read?
Answer: -0.201

Question: RRIRDRPPRLPRPRPRPHNSPRP was tested. Which “shrunken log2 fold change” value did it give?
Answer: 0.0166

Question: How did the “shrunken log2 fold change” value turn out when RRIRDRPPRLPRPRPRPHPSPRP was run?
Answer: 0.0703

Question: For RRIRDRPPRLPRPRPRPHPYPRP, which “shrunken log2 fold change” value is on record?
Answer: 0.0304

Question: Which “shrunken log2 fold change” value does the source give for RRIRDRPPRLPRPRPRPHQGPRP here?
Answer: -0.00184

Question: For RRIRDRPPRLPRPRPRPHQMPRP, which “shrunken log2 fold change” value is on record?
Answer: 0.00713

Question: RRIRDRPPRLPRPRPRPHQPPRP was tested. Which “shrunken log2 fold change” value did it give?
Answer: -0.017

Question: For RRIRDRPPRLPRPRPRPHREPRP, which “shrunken log2 fold change” value is on record?
Answer: 0.0506

Question: RRIRDRPPRLPRPRPRPHRHPRP was tested. Which “shrunken log2 fold change” value did it give?
Answer: -0.00955

Question: Which “shrunken log2 fold change” value does the source give for RRIRDRPPRLPRPRPRPHRTPRP here?
Answer: -0.0884

Question: For RRIRDRPPRLPRPRPRPHSAPRP, which “shrunken log2 fold change” value is on record?
Answer: 0.0279

Question: How did the “shrunken log2 fold change” value turn out when RRIRDRPPRLPRPRPRPHSKPRP was run?
Answer: -0.456

Question: Which “shrunken log2 fold change” value does the source give for RRIRDRPPRLPRPRPRPHTEPRP here?
Answer: -0.0337

Question: For RRIRDRPPRLPRPRPRPHTTPRP, which “shrunken log2 fold change” value is on record?
Answer: -0.117

Question: RRIRDRPPRLPRPRPRPHYVPRP was tested. Which “shrunken log2 fold change” value did it give?
Answer: -0.0495

Question: Which “shrunken log2 fold change” value does the source give for RRIRDRPPRLPRPRPRPICFPRP here?
Answer: 0.227

Question: Which “shrunken log2 fold change” value does the source give for RRIRDRPPRLPRPRPRPICPPRP here?
Answer: 0.106

Question: How did the “shrunken log2 fold change” value turn out when RRIRDRPPRLPRPRPRPICRPRP was run?
Answer: 0.266

Question: Which “shrunken log2 fold change” value does the source give for RRIRDRPPRLPRPRPRPIDGPRP here?
Answer: 0.0392

Question: RRIRDRPPRLPRPRPRPIGPPRP was tested. Which “shrunken log2 fold change” value did it give?
Answer: 0.0272

Question: With RRIRDRPPRLPRPRPRPIGWPRP as the sequence, how does the “shrunken log2 fold change” value read?
Answer: -0.0185

Question: With RRIRDRPPRLPRPRPRPIHNPRP as the sequence, how does the “shrunken log2 fold change” value read?
Answer: -0.06

Question: With RRIRDRPPRLPRPRPRPIITPRP as the sequence, how does the “shrunken log2 fold change” value read?
Answer: -0.0771

Question: With RRIRDRPPRLPRPRPRPIKIPRP as the sequence, how does the “shrunken log2 fold change” value read?
Answer: 0.0725

Question: How did the “shrunken log2 fold change” value turn out when RRIRDRPPRLPRPRPRPILLPRP was run?
Answer: -0.28

Question: How did the “shrunken log2 fold change” value turn out when RRIRDRPPRLPRPRPRPIMHPRP was run?
Answer: -0.0198

Question: With RRIRDRPPRLPRPRPRPIMNPRP as the sequence, how does the “shrunken log2 fold change” value read?
Answer: 0.0718

Question: For RRIRDRPPRLPRPRPRPIMQPRP, which “shrunken log2 fold change” value is on record?
Answer: -0.0521

Question: RRIRDRPPRLPRPRPRPIQFPRP was tested. Which “shrunken log2 fold change” value did it give?
Answer: -0.177

Question: RRIRDRPPRLPRPRPRPITLPRP was tested. Which “shrunken log2 fold change” value did it give?
Answer: -0.0934

Question: Which “shrunken log2 fold change” value does the source give for RRIRDRPPRLPRPRPRPIVGPRP here?
Answer: 0.145

Question: Which “shrunken log2 fold change” value does the source give for RRIRDRPPRLPRPRPRPIWQPRP here?
Answer: 0.211

Question: For RRIRDRPPRLPRPRPRPIWRPRP, which “shrunken log2 fold change” value is on record?
Answer: 0.235

Question: With RRIRDRPPRLPRPRPRPIWTPRP as the sequence, how does the “shrunken log2 fold change” value read?
Answer: 0.0557

Question: For RRIRDRPPRLPRPRPRPIYMPRP, which “shrunken log2 fold change” value is on record?
Answer: -0.106

Question: For RRIRDRPPRLPRPRPRPIYYPRP, which “shrunken log2 fold change” value is on record?
Answer: -0.253

Question: RRIRDRPPRLPRPRPRPKCTPRP was tested. Which “shrunken log2 fold change” value did it give?
Answer: 0.0239

Question: Which “shrunken log2 fold change” value does the source give for RRIRDRPPRLPRPRPRPKCYPRP here?
Answer: 0.013

Question: Which “shrunken log2 fold change” value does the source give for RRIRDRPPRLPRPRPRPKDCPRP here?
Answer: 0.173

Question: RRIRDRPPRLPRPRPRPKDDPRP was tested. Which “shrunken log2 fold change” value did it give?
Answer: 0.0765

Question: With RRIRDRPPRLPRPRPRPKDIPRP as the sequence, how does the “shrunken log2 fold change” value read?
Answer: -0.0599

Question: With RRIRDRPPRLPRPRPRPKEIPRP as the sequence, how does the “shrunken log2 fold change” value read?
Answer: 0.0219

Question: How did the “shrunken log2 fold change” value turn out when RRIRDRPPRLPRPRPRPKESPRP was run?
Answer: 0.277

Question: For RRIRDRPPRLPRPRPRPKFIPRP, which “shrunken log2 fold change” value is on record?
Answer: -0.14

Question: For RRIRDRPPRLPRPRPRPKFKPRP, which “shrunken log2 fold change” value is on record?
Answer: -0.0689

Question: With RRIRDRPPRLPRPRPRPKFYPRP as the sequence, how does the “shrunken log2 fold change” value read?
Answer: 0.0101

Question: RRIRDRPPRLPRPRPRPKGRPRP was tested. Which “shrunken log2 fold change” value did it give?
Answer: 0.218

Question: With RRIRDRPPRLPRPRPRPKHEPRP as the sequence, how does the “shrunken log2 fold change” value read?
Answer: 0.134

Question: For RRIRDRPPRLPRPRPRPKHKPRP, which “shrunken log2 fold change” value is on record?
Answer: -0.173

Question: Which “shrunken log2 fold change” value does the source give for RRIRDRPPRLPRPRPRPKHSPRP here?
Answer: -0.211

Question: For RRIRDRPPRLPRPRPRPKHVPRP, which “shrunken log2 fold change” value is on record?
Answer: 0.139

Question: For RRIRDRPPRLPRPRPRPKKCPRP, which “shrunken log2 fold change” value is on record?
Answer: 0.0235

Question: For RRIRDRPPRLPRPRPRPKKNPRP, which “shrunken log2 fold change” value is on record?
Answer: 0.125

Question: For RRIRDRPPRLPRPRPRPKKPPRP, which “shrunken log2 fold change” value is on record?
Answer: -0.0462

Question: Which “shrunken log2 fold change” value does the source give for RRIRDRPPRLPRPRPRPKKSPRP here?
Answer: 0.102

Question: How did the “shrunken log2 fold change” value turn out when RRIRDRPPRLPRPRPRPKLVPRP was run?
Answer: 0.0305

Question: With RRIRDRPPRLPRPRPRPKMNPRP as the sequence, how does the “shrunken log2 fold change” value read?
Answer: -0.366

Question: RRIRDRPPRLPRPRPRPKNEPRP was tested. Which “shrunken log2 fold change” value did it give?
Answer: -0.00834

Question: How did the “shrunken log2 fold change” value turn out when RRIRDRPPRLPRPRPRPKNQPRP was run?
Answer: -0.076

Question: Which “shrunken log2 fold change” value does the source give for RRIRDRPPRLPRPRPRPKNVPRP here?
Answer: -0.0304

Question: With RRIRDRPPRLPRPRPRPKQDPRP as the sequence, how does the “shrunken log2 fold change” value read?
Answer: 0.172

Question: With RRIRDRPPRLPRPRPRPKTWPRP as the sequence, how does the “shrunken log2 fold change” value read?
Answer: 0.434

Question: RRIRDRPPRLPRPRPRPKVAPRP was tested. Which “shrunken log2 fold change” value did it give?
Answer: 0.458

Question: How did the “shrunken log2 fold change” value turn out when RRIRDRPPRLPRPRPRPKVSPRP was run?
Answer: 0.036

Question: With RRIRDRPPRLPRPRPRPKVVPRP as the sequence, how does the “shrunken log2 fold change” value read?
Answer: -0.01

Question: With RRIRDRPPRLPRPRPRPKWQPRP as the sequence, how does the “shrunken log2 fold change” value read?
Answer: 0.276

Question: Which “shrunken log2 fold change” value does the source give for RRIRDRPPRLPRPRPRPKYFPRP here?
Answer: -0.0236

Question: With RRIRDRPPRLPRPRPRPKYHPRP as the sequence, how does the “shrunken log2 fold change” value read?
Answer: -0.412

Question: RRIRDRPPRLPRPRPRPLCLPRP was tested. Which “shrunken log2 fold change” value did it give?
Answer: 0.0562

Question: RRIRDRPPRLPRPRPRPLDYPRP was tested. Which “shrunken log2 fold change” value did it give?
Answer: -0.242

Question: How did the “shrunken log2 fold change” value turn out when RRIRDRPPRLPRPRPRPLEVPRP was run?
Answer: 0.121

Question: How did the “shrunken log2 fold change” value turn out when RRIRDRPPRLPRPRPRPLFPPRP was run?
Answer: -0.116

Question: For RRIRDRPPRLPRPRPRPLHEPRP, which “shrunken log2 fold change” value is on record?
Answer: -0.129

Question: Which “shrunken log2 fold change” value does the source give for RRIRDRPPRLPRPRPRPLIMPRP here?
Answer: -0.0616
